From paper PMC4521999 (Nature, 2015)
Substitutions are numbered along the chain they refer to. Names and notes keep the numbering of the source.

What was measured:
rhodopsin = rhodopsin (UniProt P02699); conditions: cited from earlier work
[1] = biological target: T1, His8-MBP-rhodopsin E113Q/M257Y (in N2C/N282C) (human, UniProt P08100 1-348, N2^NtermC | N282^ECL3C | E113^3.28Q | M257^6.40Y); assay: AlphaScreen or HTRF
[2] = biological target: WT rhodopsin (1–321)-TEV site-tTA (Tango construct) (human, UniProt P08100 1-321, N2^NtermC | N282^ECL3C); assay: Tango assay
[3] = biological target: E113Q/M257Y rhodopsin (1–321)-TEV site-tTA (Tango construct) (human, UniProt P08100 1-321, N2^NtermC | N282^ECL3C | E113^3.28Q | M257^6.40Y); assay: Tango assay
[4] = biological target: T1, His8-MBP-rhodopsin E113Q/M257Y (in …); assay: pull-down

arrestin (from UniProt P10523)
Kd (rhodopsin): 50 nM

B1: untagged 3A_arrestin (residues 10–392) (domain or fragment, mouse, UniProt P20443 10-392, looked up)
chain: SHVIFKKVSRDKSVTIYLGKRDYVDHVSQVEPVDGVVLVDPELVKGKKVYVTLTCAFRYGQEDIDVMGLTFRRDLYFSRVQVYPPVGAMSVLTQLQESLLKKLGDNTYPFLLTFPDYLPCSVMLQPAPQDVGKSCGVDFEVKAFASDITDPEEDKIPKKSSVRLLIRKVQHAPPEMGPQPSAEASWQFFMSDKPLNLSVSLSKEIYFHGEPIPVTVTVTNNTDKVVKKIKVSVEQIANVVLYSSDYYVKPVASEETQEKVQPNSTLTKTLVLVPLLANNRERRGIALDGKIKHEDTNLASSTIIKEGIDRTVMGILVSYHIKVKLTVSGFLGELTSSEVATEVPFRLMHPQPEDPAKESVQDENAAAEEFARQNLKDTGENTE
IC50 [1]: 15 nM

B2: WT arrestin (10–392)-TEV protease (Tango construct) (domain or fragment, mouse, UniProt P20443 10-392, looked up)
chain: B1 chain with A365L, A366V, A367F
fold increase of binding with all-trans-retinal [2]: ~3 fold

B3: 3A_arrestin (10–392)-TEV protease (Tango construct) (domain or fragment, mouse, UniProt P20443 10-392, looked up)
chain: B1 chain
fold increase of binding signal with all-trans-retinal [3]: ~5 fold

B4: 35S-labelled 3A_arrestin (L374A/V375A/F376A, in vitro translated) (natural protein, mouse, UniProt P20443 1-403, looked up)
chain: MAACGKTNKSHVIFKKVSRDKSVTIYLGKRDYVDHVSQVEPVDGVVLVDPELVKGKKVYVTLTCAFRYGQEDIDVMGLTFRRDLYFSRVQVYPPVGAMSVLTQLQESLLKKLGDNTYPFLLTFPDYLPCSVMLQPAPQDVGKSCGVDFEVKAFASDITDPEEDKIPKKSSVRLLIRKVQHAPPEMGPQPSAEASWQFFMSDKPLNLSVSLSKEIYFHGEPIPVTVTVTNNTDKVVKKIKVSVEQIANVVLYSSDYYVKPVASEETQEKVQPNSTLTKTLVLVPLLANNRERRGIALDGKIKHEDTNLASSTIIKEGIDRTVMGILVSYHIKVKLTVSGFLGELTSSEVATEVPFRLMHPQPEDPAKESVQDENAAAEEFARQNLKDTGENTEGKKDEDAGQDE
modifications: 35S-methionine
fold of the binding of WT arrestin to WT rhodopsin, with all-trans-retinal [4]: ~60 fold

TGGRVLEDLKSCGLF [GαCT peptide, a high affinity peptide variant of the C-terminus of G-transducin (Gt)]
IC50 [1]: 700 nM
